64 variants from the RNAGym collection of RNA variant scans (doi:10.7554/elife.80360) can be followed below.

B1: HDV Ribozyme (parent)
chain: GGCCGGCAUGGUCCCAGCCUCCUCGCUGGCGCCGGCUGGGCAACAUUCCGAGGGGACCGUCCCCUCGGUAAUGGCGAAUGGGACCCA

Variants of B1 are the subject of the data set. Nature of the data set: self-cleavage, relative activity (ratio to wild type); higher = more cleavage; co-transcriptional.
As to GGCCGGCAUGGUCCCAGCCUCCUCGCUGGCGCCGGCUGGGCAACAUUCCGAGGGGAUCGUCCCCUCGGUAAUGGCGAAUGGUACCCA, the self-cleavage worked out at 0.234.
With GGCCGGCAUGGUCCCAGCCUCCUCGCUGGCGCCGGCUGGGCAACAUUCCGAGGGGACCGUCCCCUCGGUAAUGGCGAAUGGGAUCCC, the self-cleavage was 0.749.
Under GGCCGGCAUGGUCCCAGCCUCCUCACUGGCGGCGGCUGGGCAACAUUCCGAGGGGACCGUCCCCUCGGUAAUGGCGAAUGGGACCCA stands 0.0623.
Take GGCCGGCAUGGUCCCAGCCUCCUCGCUGGCGCCGGCUGGGCACCAUUCCGAGGGGACCGUCCCCUCGGUAAUGGCGAAUGGGACCCA: the self-cleavage worked out at 0.498.
Under GGCUGGCAUGGUCCCAGCCUCCUCGCUGGCGCCGGUUGGGCAACAUUCCGAGGGGACCGUCCCCUCGGUAAUGGCGAAUGGGACCCA stands 0.272; under GGCCUGCAUGGUCCCAGCGUCCUCGCUGGCGCCGGCUGGGCAACAUUCCGAGGGGACCGUCCCCUCGGUAAUGGCGAAUGGGACCCA, 0; under GGCCGGCAUGGUGCCAGCCUCCUCGCUGGCGACGGCUGGGCAACAUUCCGAGGGGACCGUCCCCUCGGUAAUGGCGAAUGGGACCCA, 0.0875.
With GGCCGGCAUGGUCCCAGCCUCCUCGCUGGGGCCGGCUGGGCAACAUUCCGACGGGACCGUCCCCUCGGUAAUGGCGAAUGGGACCCA, the self-cleavage turned out to be 0.133.
In the case of GGCCGGCAUGGUCCCAGCCUUCUCGCUGGCGCCGGCUGGGCAACAUUCCGAGGGGACCGUCCCCUCGGUGAUGGCGAAUGGGACCCA, the self-cleavage turned out to be 0.271.
Under GGCCGGCAUGGUCACAGCCUCCUCGCUGGCGCCGGCUGGGCAACAUUCCGAGGGGACCGUCCCCUCGGUAGUGGCGAAUGGGACCCA stands 0.499; under GGCCGGCAUGGUCCCAGCCUCCUCGCUGGCGUCGGCUGGGCAACAUUCCGAGGGGACCGUCCCCUCGGUAAUGGCGAAUGGGACCCU, 1.03; under GGCCGGCAUGGUCCCAGCCUCCUCGCUGUCGCCGGCUGGGCAACCUUCCGAGGGGACCGUCCCCUCGGUAAUGGCGAAUGGGACCCA, 0.113.
On to GGCCGGCAUGGUCCCAGCCUCCUCGCUGGCGCCGGCUGGGCAACGUUCCGAGGGGACCGCCCCCUCGGUAAUGGCGAAUGGGACCCA, for which the self-cleavage was 0.831.
With GGCCGGCAUGGUCCCAGCCUCCUCGCUGGCGACGGCUGGGCAACAUUCCGAGGGGACCGUCCCCUCGGUAAUGGCGAAUGGUACCCA, the self-cleavage came to 0.104.
Under GGCCGGAAUGGUCCCAGCCUCCUCGCUGGCGCCGGUUGGGCAACAUUCCGAGGGGACCGUCCCCUCGGUAAUGGCGAAUGGGACCCA stands 0.203; under GGCCGGCAUGGUCCCAGCCUCCUCGCAGGCGCCGGCUGGGCAACAUUCCGAGGGGACCGUCCCCUCGGUAAUGGCGAAUGGGCCCCA, 0.739; under GGCCGGCAUGGUCCCAGCCUUCUCGCUGGCGCCGGCUGGACAACAUUCCGAGGGGACCGUCCCCUCGGUAAUGGCGAAUGGGACCCA, 0.538.
Under GGCCGGCAUGGUCCCAGCCUCCUCGCUCGCGCCGGCUGGGCAACAUUCCGAGGGGACCGUCCCCUCGGUAAUGGCGAAUGGGACCAA stands 0.0583.
Under GGCCGGCAUGGUCCCAGCCUCCUCGCUGGCGCCGGCUGGGCAACAUUCCGAGGCGACCGUCCCCUCGGUAAUGGCGAAUGGGACUCA stands 0.892.
As to GGCCGGCAUGGUCCCCGCCUCCUCGCUGGCGCCGGGUGGGCAACAUUCCGAGGGGACCGUCCCCUCGGUAAUGGCGAAUGGGACCCA, the self-cleavage came to 0.
As to GGCCGGCAUGGUCCCAGCCUCCUCGCGGGCGCCGGCUGGGCAACAAUCCGAGGGGACCGUCCCCUCGGUAAUGGCGAAUGGGACCCA, the self-cleavage worked out at 0.332.
Regarding GGCCGGCAUGGUCCCAGCCUCCUCGCUGGCGCCGGCUGGGCAACAUUCCGAGGGGACCGUCCCCUCGGUAAUGGCGAAUGGGGCCCC, the self-cleavage worked out at 0.906.
Under GGCCGGCAUGGUCCCAGCCUCCUCGCUGGCGCCGGCUGGGCAACAUUCCGAGGGGACCGUCCCCUGUGUAAUGGCGAAUGGGACCCA stands 0.831.
Take GGCCGGUAUGGUCCCAGCCUCCUCGCUGGCGCCGGCUGGGCAGCAUUCCGAGGGGACCGUCCCCUCGGUAAUGGCGAAUGGGACCCA: the self-cleavage came out at 0.19.
In the case of GGCCGGCAUGGUCCCAGCCUCCUCGUUGGCGCCGGCUGGGCAACAUUCCGAGGGGACCGUCCCCUCGGUACUGGCGAAUGGGACCCA, the self-cleavage came to 0.748.
The value for GGCCGGCAUGGUCCCAGCCUCCUCGCUGGCGCCGGCUGGGCAACAUUCCGAGGGGACCGUCCCCUCGGUAAUGGCAAAUGGCACCCA was 0.214; that for GGCCGCCAUGGUCCCAGCCUCCUCGCUGGCGCCGGCUGGGCAACAUUCCGAGGGGACCGACCCCUCGGUAAUGGCGAAUGGGACCCA was 0.231; that for GGCCGGCAUGGUCCCAGCCUCCUCGCUGGCGACGGCUGGGCAACAUUCCGAGGGGACCGUCCCCUCGGUAAUGACGAAUGGGACCCA was 0.148.
Consider GGGCGGCAUGGUCCCAGCCUCCUCGCUGGCGCCGGCUGGGCAACAUUCCGAGGGGACCGUCCCCUCGGUAAUGGCGAAUUGGACCCA, for which the self-cleavage amounted to 0.0801.
Under GGCCGGCAUGGUCCCAGCCUCCUCGCUGGCGCCGGCUGGGCAACAUUCCGAGGGGACCGUCCCCUCGGUCAUGGGGAAUGGGACCCA stands 0.0615; under GGCCGGCAUGGUCCCAGCCUCCUCGCUGGCGCCGGCUGGGCAACAUUCCGAGGGGAUCGUCCCUUCGGUAAUGGCGAAUGGGACCCA, 0.845.
The value for GGCCGGCAUGGUCCCAGCAUCCUCGCUGGCGCCGGCUGGGCAACAUUCCGAGGGGACCGUCCCCUCGGUAAUGGCGAAUGGGACCGA was 0.0548; that for GGCCGGCAUGGUCCCAGCCUCCUCGCUGGCGCCGGCUGGGCAACAAUCCGGGGGGACCGUCCCCUCGGUAAUGGCGAAUGGGACCCA was 0.739; that for GGCCGGCAUGGACCCAGCCUCCUCGCUGGCGCCGGCUGGGCAACAUUCCGAGGGGACCGUCCCCUCGGUAGUGGCGAAUGGGACCCA was 0.
The value for GGCCGUCAUGGUCCCAGCCUCCUCGCUGGCGCCGGCUGGGCAACAUUCCGAGGGGACCGUCCCCUCGGUAAUGGCGAACGGGACCCA was 0.123.
As to GGGCGGCAUGGUCCCAGCCUCCUCGCUGGCGCCGGCUGGGCAACAUUCCGAGGGGACCGUCCCCUCGGUAAUGGCGAAGGGGACCCA, the self-cleavage worked out at 0.262.
With GGCCGGCAUGGUCCCAGCCUCCUCGCUGGCGCCGGCUGGGCAACAUUCCAAGGGGACCGUCUCCUCGGUAAUGGCGAAUGGGACCCA, the self-cleavage was found to be 0.926.
Take GGCCGGCAUGGUCCCAGCCUCCUCGCUGGCGCCGGCUGGGCAACAUUCAGAGGGGACUGUCCCCUCGGUAAUGGCGAAUGGGACCCA: the self-cleavage is 1.04.
Under GGCCGGCAUGGUCCCAGCCUCCUCGCUGGCGCCGGCUGGGCAACAUGCCGAGGGGACCGUACCCUCGGUAAUGGCGAAUGGGACCCA stands 1.2; under GGCCGGCAUGGUCCCAGCCUCCUCGCUAGCGCCGGCUGGGCAACAUUCCGAGGGGACCGUCCCCUCGGGAAUGGCGAAUGGGACCCA, 0.
GGCCGGCAUGGUCCCAGCCUCCUCGCUGGCGCCGGCUGGGCAACAUUCCGAGGGGACCGUCCCCUCGGUAAGGGCGAAUGGGAACCA: the self-cleavage was determined as 0.6.
On to GUCCGGCAGGGUCCCAGCCUCCUCGCUGGCGCCGGCUGGGCAACAUUCCGAGGGGACCGUCCCCUCGGUAAUGGCGAAUGGGACCCA, for which the self-cleavage was 0.101.
The value for GGCCGGCAUGGUCCCAGCCUCCUCGCUGGCGCCGGCCGGGCAACAUUCCGAGGGGACCGUCCCCUCGGUAUUGGCGAAUGGGACCCA was 0.807; that for GGCCGGCAUGGUCCCAGCCUCCUCGCUGGCGCCGGAUGGGCAACAUUCCGAGGGGACCGUCCCCUCGGUAAUGGCGAAUGAGACCCA was 0.138; that for GGCCGGCAUGGUCCCAGCCUCCUCUCUGGCGCCGGCUGGGCAACAUUCCGAGGGGACCGUCCCCUCGGUAAUGGCGAAUGGGAGCCA was 0.17.
Under GGCCGGCAUGGUCCCAGCCUCCUCGCUGGCGCCGGCUGGGCAACAUUCCGAGGGGACCGUCCCCUCGGUAAUGGCGAAUGGCACCGA stands 0.194; under GGCCGGCAUGGUGCCAGCCUCCUCGCUGGCGCCGGCUGGGCAACAUUCCGAGGGGACCGUCCCCUCGGUAAUGGCUAAUGGGACCCA, 0.104; under AGCCGGCAUGGUCCCAGCCUCCUCGCUGGCGCCGGCUGGGCAACAUUCCGAGGGGACCGUCCCUUCGGUAAUGGCGAAUGGGACCCA, 0.101.
For GACCGGCAUGGUCCCAGCCUCCUCACUGGCGCCGGCUGGGCAACAUUCCGAGGGGACCGUCCCCUCGGUAAUGGCGAAUGGGACCCA, the self-cleavage turned out to be 0.0346.
Under GGCCGGCAUGGUCCCAGCCUCCUCGCUGGCGCCGGCUGGGCAACAUUCCGAGGGGACCGUCCCAUCCGUAAUGGCGAAUGGGACCCA stands 0.277.
The value for GGCCGGCCUGGUCCCAGCCUCCUCGCUGGCGCCGGCUGGGCAACAUUCCGAGGGGACCGUCCCUUCGGUAAUGGCGAAUGGGACCCA was 0.923; that for GGCCGGCAUGGUCCCAGCCUCCUCGCUGGCGCCGGCUGGGCAACAUUCCCAGGGGACCGUCACCUCGGUAAUGGCGAAUGGGACCCA was 0.475; that for GGCCGCCAUGGUCCCAGCCUCCUCGCUGGCGCCGGCUGGGCAACAUUCCGAGGGGACCGUCCCCUCGGUAGUGGCGAAUGGGACCCA was 0.
The value for GGCCGGCAUGGUCCCAGCCUCCCCGCUGGCGCCGGCUGGGCAACAUUCCGAGGGGACCGUCCCCUCGGUAAUGGCGAAUGGGAGCCA was 0.739; that for GGCCGGCAUGGUCCCAGCCUCCUCGCUGGCGCCGGCUGGGCUACAUUCCGAGGGGACUGUCCCCUCGGUAAUGGCGAAUGGGACCCA was 0.271; that for GGCCGGCAUGGUCCCAGCCUCCUCGCUGGCGCCGGAUGGGCAACAUUCCGAGGGGACCGUCUCCUCGGUAAUGGCGAAUGGGACCCA was 0.175.
As for GGCCGGCAUUGUCCCAGCCUCCUCGCUGGCGCCGGCUGGGCCACAUUCCGAGGGGACCGUCCCCUCGGUAAUGGCGAAUGGGACCCA, the self-cleavage was found to be 0.149.
The value for GGCCGGCAUGGUGCCAGCCUCCUCGCUGGCGCCGGCUGGGCAACAUUCCGAGGGGACCGUCCCCUAGGUAAUGGCGAAUGGGACCCA was 0.0339; that for GGCCGGCAUGGUCCCAGCCUCCUGGCUGGCGCCGGCUGGGCAACAUUCCUAGGGGACCGUCCCCUCGGUAAUGGCGAAUGGGACCCA was 0.149; that for GGCCGGCAUCGUCCCAGCCUCCUCGCUGGCGCCGGCUGGGCAACAUUCCGAGGGGCCCGUCCCCUCGGUAAUGGCGAAUGGGACCCA was 0.978.
Under GGCCGGCAUGGUCCCAGCCUCCUCGCUGGCGCCGGCUGGGCAACAUUCCGAGAGGACCGUUCCCUCGGUAAUGGCGAAUGGGACCCA stands 0.99; under GGCCGGCAUGGUCCCAGCCUCCUCGUUGGCGCCGGCUGGGCAACAUUCCGAGGGGACCGUCCCCUUGGUAAUGGCGAAUGGGACCCA, 1.02; under GGCCGGCAUGGUCCCAGCCUCCUCGCUGGCGCCGGCUGGGCAACAUUCCGAGGGGCCCGUCCCCUCGGUAAUCGCGAAUGGGACCCA, 0.536.
Take GGCCGGCAUGGUCCCAGCCUACUCGCUGGCGCCGGCUGGGCAACAUUCCGCGGGGACCGUCCCCUCGGUAAUGGCGAAUGGGACCCA: the self-cleavage turned out to be 0.175.
